Laboratory results taken from patent US20110118131A1 (published 2011).
Residue numbers refer to the chain shown, from its start. Numbers in names are those of the source. Like-named read-outs stand apart in the source and are kept apart here.

T1: Ep-CAM (UniProt P16422 24-265, limits assumed)
T1 construct: Amine coupled to a CM5 chip in the Biacore assays
T1 sequence (looked up): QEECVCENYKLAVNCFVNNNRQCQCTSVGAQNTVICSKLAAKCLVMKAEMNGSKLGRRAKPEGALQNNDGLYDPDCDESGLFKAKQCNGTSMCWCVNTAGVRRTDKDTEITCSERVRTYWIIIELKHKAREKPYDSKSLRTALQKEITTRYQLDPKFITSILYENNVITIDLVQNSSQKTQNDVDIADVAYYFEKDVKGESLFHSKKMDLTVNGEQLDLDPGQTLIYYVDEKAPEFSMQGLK

T2: Ep-CAM (UniProt P16422 24-265, limits assumed)
T2 construct: Antigen of the Biacore analysis of ING-1 variants
T2 sequence (looked up): T1 sequence (looked up)

B1: ING-1 light chain E98N (Fab, V domains shown)
VH: QIQLVQSGPELKKPGETVKISCKASGYTFTKYGMNWVKQAPGKGLKWMGWINTYTEEPTYGDDFKGRFAFSLETSASTANLQINNLKSEDTATYFCARFGSAVDYWGQGTSVTVSS
VL: DIVMTQAAFSNPVTLGTSGSISCRSSKSLLHSNGITYLYWYLQKPGQSPQLLIYQMSNLASGVPDRFSSSGSGTDFTLRISRVEAEDVGVYYCAQNLNLPRTFGGGTKLEMKR
notes: Fab, periplasmic extract
B2: ING-1 light chain H31R (Fab, V domains shown)
VH: B1 VH
VL: B1 VL with H31R, N98E
notes: Fab, periplasmic extract
B3: ING-1 light chain K27S (Fab, V domains shown)
VH: B1 VH
VL: B1 VL with K27S, N98E
notes: Fab, periplasmic extract
B4: ING-1 light chain L30R (Fab, V domains shown)
VH: B1 VH
VL: B1 VL with L30R, N98E
notes: Fab, periplasmic extract
B5: ING-1 heavy chain Y105E (Fab, V domains shown)
VH: B1 VH with Y105E
VL: B1 VL with N98E
B6: ING-1 heavy chain W50F (Fab, V domains shown)
VH: B1 VH with W50F
VL: B1 VL with N98E
B7: ING-1 heavy chain Y32S (Fab, V domains shown)
VH: B1 VH with Y32S
VL: B1 VL with N98E
B8: ING-1 heavy chain Y32H (Fab, V domains shown)
VH: B1 VH with Y32H
VL: B1 VL with N98E
B9: ING-1 light chain L29E (Fab, V domains shown)
VH: B1 VH
VL: B1 VL with L29E, N98E
notes: Fab, periplasmic extract
B10: ING-1 heavy chain Y32E (Fab, V domains shown)
VH: B1 VH with Y32E
VL: B1 VL with N98E
B11: ING-1 light chain L97D (Fab, V domains shown)
VH: B1 VH
VL: B1 VL with L97D, N98E
notes: Fab, periplasmic extract
B12: ING-1 light chain E98S (Fab, V domains shown)
VH: B1 VH
VL: B1 VL with N98S
notes: Fab, periplasmic extract
B13: ING-1 light chain K27N (Fab, V domains shown)
VH: B1 VH
VL: B1 VL with K27N, N98E
notes: Fab, periplasmic extract
B14: ING-1 heavy chain Y105S (Fab, V domains shown)
VH: B1 VH with Y105S
VL: B1 VL with N98E
B15: ING-1 light chain L29D (Fab, V domains shown)
VH: B1 VH
VL: B1 VL with L29D, N98E
notes: Fab, periplasmic extract
B16: ING-1 heavy chain W50H (Fab, V domains shown)
VH: B1 VH with W50H
VL: B1 VL with N98E
B17: ING-1 light chain L30W (Fab, V domains shown)
VH: B1 VH
VL: B1 VL with L30W, N98E
notes: Fab, periplasmic extract
B18: ING-1 light chain K27W (Fab, V domains shown)
VH: B1 VH
VL: B1 VL with K27W, N98E
notes: Fab, periplasmic extract
B19: ING-1 heavy chain W50Y (Fab, V domains shown)
VH: B1 VH with W50Y
VL: B1 VL with N98E
B20: ING-1 light chain K27E (Fab, V domains shown)
VH: B1 VH
VL: B1 VL with K27E, N98E
notes: Fab, periplasmic extract
B21: ING-1 heavy chain Y105D (Fab, V domains shown)
VH: B1 VH with Y105D
VL: B1 VL with N98E
B22: ING-1 light chain L29F (Fab, V domains shown)
VH: B1 VH
VL: B1 VL with L29F, N98E
notes: Fab, periplasmic extract
B23: ING-1 heavy chain Y105K (Fab, V domains shown)
VH: B1 VH with Y105K
VL: B1 VL with N98E
B24: ING-1 light chain L30K (Fab, V domains shown)
VH: B1 VH
VL: B1 VL with L30K, N98E
notes: Fab, periplasmic extract
B25: ING-1 heavy chain W50S (Fab, V domains shown)
VH: B1 VH with W50S
VL: B1 VL with N98E
B26: ING-1 light chain H31K (Fab, V domains shown)
VH: B1 VH
VL: B1 VL with H31K, N98E
notes: Fab, periplasmic extract
B27: ING-1 heavy chain Y32K (Fab, V domains shown)
VH: B1 VH with Y32K
VL: B1 VL with N98E
B28: ING-1 light chain H31N (Fab, V domains shown)
VH: B1 VH
VL: B1 VL with H31N, N98E
notes: Fab, periplasmic extract
B29: ING-1 light chain L29Q (Fab, V domains shown)
VH: B1 VH
VL: B1 VL with L29Q, N98E
notes: Fab, periplasmic extract
B30: ING-1 light chain L29Y (Fab, V domains shown)
VH: B1 VH
VL: B1 VL with L29Y, N98E
notes: Fab, periplasmic extract
B31: ING-1 heavy chain W50K (Fab, V domains shown)
VH: B1 VH with W50K
VL: B1 VL with N98E
B32: ING-1 heavy chain Y32Q (Fab, V domains shown)
VH: B1 VH with Y32Q
VL: B1 VL with N98E
B33: ING-1 heavy chain W50Q (Fab, V domains shown)
VH: B1 VH with W50Q
VL: B1 VL with N98E
B34: ING-1 heavy chain W50N (Fab, V domains shown)
VH: B1 VH with W50N
VL: B1 VL with N98E
B35: ING-1 heavy chain Y54H (Fab, V domains shown)
VH: B1 VH with Y54H
VL: B1 VL with N98E
B36: ING-1 heavy chain Y54D (Fab, V domains shown)
VH: B1 VH with Y54D
VL: B1 VL with N98E
B37: ING-1 light chain L29R (Fab, V domains shown)
VH: B1 VH
VL: B1 VL with L29R, N98E
notes: Fab, periplasmic extract
B38: ING-1 light chain I35N (Fab, V domains shown)
VH: B1 VH
VL: B1 VL with I35N, N98E
notes: Fab, periplasmic extract
B39: ING-1 light chain L29W (Fab, V domains shown)
VH: B1 VH
VL: B1 VL with L29W, N98E
notes: Fab, periplasmic extract
B40: ING-1 light chain L30E (Fab, V domains shown)
VH: B1 VH
VL: B1 VL with L30E, N98E
notes: Fab, periplasmic extract
B41: ING-1 light chain L97R (Fab, V domains shown)
VH: B1 VH
VL: B1 VL with L97R, N98E
notes: Fab, periplasmic extract
B42: ING-1 heavy chain W50R (Fab, V domains shown)
VH: B1 VH with W50R
VL: B1 VL with N98E
B43: ING-1 heavy chain Y54E (Fab, V domains shown)
VH: B1 VH with Y54E
VL: B1 VL with N98E

What was measured:
Ep-CAM [1] = molecular target: T1, Ep-CAM; test: Biacore, Fab periplasmic extract
Ep-CAM [2] = molecular target: T2, Ep-CAM; test: Biacore, Fab periplasmic extract

Binder | binding result (Ep-CAM [1]) | fold difference in affinity vs original (Ep-CAM [2]) | other results
B1 | no binding | – | –
B2 | – | – | fold difference in affinity vs parental ING-1 (Ep-CAM [1]): 0.06 fold
B3 | no binding | – | –
B4 | no binding | – | –
B5 | – | – | binding result (Ep-CAM [2]): no binding
B6 | – | 0.09 fold | –
B7 | – | 0.01 fold | –
B8 | – | 0.6 fold | –
B9 | no binding | – | –
B10 | – | 0.08 fold | –
B11 | no binding | – | –
B12 | no binding | – | –
B13 | no binding | – | –
B14 | – | 0.09 fold | –
B15 | no binding | – | –
B16 | – | 0.02 fold | –
B17 | no binding | – | –
B18 | no binding | – | –
B19 | – | 0.04 fold | –
B20 | no binding | – | –
B21 | – | – | binding result (Ep-CAM [2]): no binding
B22 | no binding | – | –

Binder | binding result (Ep-CAM [1]) | fold difference in affinity vs original (Ep-CAM [2]) | other results
B23 | – | – | binding result (Ep-CAM [2]): no binding
B24 | no binding | – | –
B25 | – | 0.02 fold | –
B26 | – | – | fold difference in affinity vs parental ING-1 (Ep-CAM [1]): 0.05 fold
B27 | – | 0.08 fold | –
B28 | – | – | fold difference in affinity vs parental ING-1 (Ep-CAM [1]): 0.5 fold
B29 | no binding | – | –
B30 | no binding | – | –
B31 | – | 0.04 fold | –
B32 | – | 0.1 fold | –
B33 | – | 0.01 fold | –
B34 | – | 0.03 fold | –
B35 | – | 1 fold | –
B36 | – | 0.05 fold | –
B37 | no binding | – | –
B38 | – | – | fold difference in affinity vs parental ING-1 (Ep-CAM [1]): 0.5 fold
B39 | no binding | – | –
B40 | no binding | – | –
B41 | no binding | – | –
B42 | – | 0.1 fold | –
B43 | – | 0.07 fold | –
